{
  "source": "patent US20220333113",
  "key": {"[1]": {"target": "T1, RIG-I CTD (aa 792-925) (Homo sapiens) (UniProt O95786)", "T1 sequence": "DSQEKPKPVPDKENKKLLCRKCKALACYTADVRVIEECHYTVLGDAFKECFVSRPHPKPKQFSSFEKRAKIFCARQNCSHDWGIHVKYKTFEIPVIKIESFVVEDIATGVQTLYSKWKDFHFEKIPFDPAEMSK", "assay": "EMSA", "conditions": "J = PPdU at every J; SB18T0.01 + 20% glycerol, 1 mM DTT, 37 C"}, "[2]": {"target": "T2, RIG-I K861A (Homo sapiens) (UniProt O95786)", "T2 sequence": "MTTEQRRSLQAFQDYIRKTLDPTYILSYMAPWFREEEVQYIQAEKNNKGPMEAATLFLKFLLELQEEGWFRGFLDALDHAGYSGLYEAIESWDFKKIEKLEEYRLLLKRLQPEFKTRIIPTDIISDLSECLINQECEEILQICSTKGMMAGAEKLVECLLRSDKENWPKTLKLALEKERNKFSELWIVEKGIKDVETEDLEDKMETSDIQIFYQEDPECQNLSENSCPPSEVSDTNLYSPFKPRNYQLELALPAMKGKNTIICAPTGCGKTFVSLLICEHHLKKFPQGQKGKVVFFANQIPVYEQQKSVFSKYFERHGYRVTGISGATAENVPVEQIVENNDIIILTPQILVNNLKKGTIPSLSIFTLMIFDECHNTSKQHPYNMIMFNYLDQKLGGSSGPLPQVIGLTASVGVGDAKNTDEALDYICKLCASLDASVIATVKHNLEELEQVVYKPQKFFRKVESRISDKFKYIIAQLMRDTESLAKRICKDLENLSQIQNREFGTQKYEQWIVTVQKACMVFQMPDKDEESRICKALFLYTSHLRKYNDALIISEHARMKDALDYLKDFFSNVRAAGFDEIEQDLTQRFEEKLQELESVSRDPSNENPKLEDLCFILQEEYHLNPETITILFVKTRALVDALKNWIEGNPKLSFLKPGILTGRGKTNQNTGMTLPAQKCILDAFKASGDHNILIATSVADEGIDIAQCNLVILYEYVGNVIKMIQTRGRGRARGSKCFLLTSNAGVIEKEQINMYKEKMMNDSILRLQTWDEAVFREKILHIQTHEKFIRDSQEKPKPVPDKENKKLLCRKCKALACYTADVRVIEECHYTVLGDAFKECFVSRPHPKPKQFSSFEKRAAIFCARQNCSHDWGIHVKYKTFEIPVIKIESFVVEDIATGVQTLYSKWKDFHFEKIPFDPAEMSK", "assay": "filter", "conditions": "J = PPdU at every J; SB18T0.01 + 1 mM DTT, 37 C"}, "[3]": {"target": "T3, RIG-I K888A (Homo sapiens) (UniProt O95786)", "T3 sequence": "T2 sequence with A861K, K888A", "assay": "filter", "conditions": "J = PPdU at every J; SB18T0.01 + 1 mM DTT, 37 C"}, "[4]": {"target": "T4, RIG-I WT full-length (Homo sapiens) (UniProt O95786)", "T4 sequence": "T2 sequence with A861K", "assay": "filter", "conditions": "J = PPdU at every J; SB18T0.01 + 1 mM DTT, 37 C"}},
  "note": "Positions count from the first letter of the chain named.",
  "data": [
    {"sequence": "ATCTCTGTGTCATGTGTTTTAATGTCAGTTTAATGATGAGG [14832-55_8]", "values": [
      {"measurement": "Kd", "setting": "[1]", "value": 0.019, "unit": "nM"},
      {"measurement": "Kd", "setting": "[2]", "value": 0.89, "unit": "nM"},
      {"measurement": "Kd", "setting": "[3]", "value": 0.53, "unit": "nM"},
      {"measurement": "Kd", "setting": "[4]", "value": 0.56, "unit": "nM"}
    ]}
  ]
}
